Earlier results as cited in publication PMC11794116.

Target: CD16a (F176) (Homo sapiens) (UniProt P08637)
Sequence (P08637 17-208): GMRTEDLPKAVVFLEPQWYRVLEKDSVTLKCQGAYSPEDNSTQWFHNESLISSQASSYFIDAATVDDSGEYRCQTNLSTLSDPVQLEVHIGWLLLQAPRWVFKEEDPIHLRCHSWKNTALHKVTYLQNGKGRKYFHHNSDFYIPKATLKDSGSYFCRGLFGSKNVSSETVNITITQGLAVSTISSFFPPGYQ

- Kd: 1070 nM
Substance: trastuzumab Fc
